T1: nuclear SREBP-2 (nSREBP-2) (rat, UniProt Q3T1I5 1-476)
T1 sequence: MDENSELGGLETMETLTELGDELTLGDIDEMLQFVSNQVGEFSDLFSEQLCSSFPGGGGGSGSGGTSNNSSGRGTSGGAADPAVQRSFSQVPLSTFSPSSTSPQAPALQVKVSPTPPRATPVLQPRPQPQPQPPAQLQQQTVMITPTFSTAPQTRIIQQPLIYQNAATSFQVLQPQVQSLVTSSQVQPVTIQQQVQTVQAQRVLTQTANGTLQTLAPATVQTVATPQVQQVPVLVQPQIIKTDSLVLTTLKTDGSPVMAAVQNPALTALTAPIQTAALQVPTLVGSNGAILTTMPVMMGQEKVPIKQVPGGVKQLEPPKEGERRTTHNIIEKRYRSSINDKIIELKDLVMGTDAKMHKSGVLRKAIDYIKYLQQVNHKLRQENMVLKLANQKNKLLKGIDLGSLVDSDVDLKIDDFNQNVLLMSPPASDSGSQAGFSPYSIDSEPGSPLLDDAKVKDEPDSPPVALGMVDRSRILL

T2: nuclear SREBP-1c (nSREBP-1c) (rat, UniProt P56720-1 1-456)
T2 sequence: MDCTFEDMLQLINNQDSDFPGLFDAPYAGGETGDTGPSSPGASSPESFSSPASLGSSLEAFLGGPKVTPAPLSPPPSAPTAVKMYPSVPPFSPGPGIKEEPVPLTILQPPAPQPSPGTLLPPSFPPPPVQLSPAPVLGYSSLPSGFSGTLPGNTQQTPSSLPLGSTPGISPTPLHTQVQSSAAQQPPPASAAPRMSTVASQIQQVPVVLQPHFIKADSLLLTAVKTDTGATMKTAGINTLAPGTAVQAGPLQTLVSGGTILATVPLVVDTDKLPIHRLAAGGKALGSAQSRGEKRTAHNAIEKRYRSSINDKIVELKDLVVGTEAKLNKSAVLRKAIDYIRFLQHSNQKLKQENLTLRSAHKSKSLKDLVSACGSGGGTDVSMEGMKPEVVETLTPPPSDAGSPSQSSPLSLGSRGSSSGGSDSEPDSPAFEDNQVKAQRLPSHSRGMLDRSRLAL

B1: rTPO VI mut3 (dsDNA)
DNA 1: AGCTCAGGCCTCTCCTCAGACTAATCCTCCCAAGT
DNA 2: TCGAACTTGGGAGGATTAGTCTGAGGAGAGGCCTG
B2: rTPO III mut3 (dsDNA)
DNA 1: AGCTGATAATCAGATTCGAAGCAGAATACT
DNA 2: TCGAAGTATTCTGCTTCGAATCTGATTATC
B3: rTPO V (dsDNA)
DNA 1: AGCTGTGGGATGTACCATAAATACCCAGG
DNA 2: TCGACCTGGGTATTTATGGTACATCCCAC
B4: rTPO III mut1 (dsDNA)
DNA 1: AGCTGATAATCAGAAAGTCAGCAGTTCTAG
DNA 2: TCGACTAGAACTGCTGACTTTCTGATTATC
B5: rTPO III mut4 (dsDNA)
DNA 1: AGCTGATAAGATTCAAGTCAGCAGAATACT
DNA 2: TCGAAGTATTCTGCTGACTTGAATCTTATC
B6: rTPO VI mut2 (dsDNA)
DNA 1: AGCTCAGGCCTCTCCTCAGGTGGGGTTGACCAAGT
DNA 2: TCGAACTTGGTCAACCCCACCTGAGGAGAGGCCTG
B7: rTPO VI mut4 (dsDNA)
DNA 1: AGCTCAGGCCTCTCAGATAGTGGGTCCTCCCAAGT
DNA 2: TCGAACTTGGGAGGACCCACTATCTGAGAGGCCTG
B8: rTPO VI (dsDNA)
DNA 1: AGCTCAGGCCTCTCCTCAGGTGGGTCCTCCCAAGT
DNA 2: TCGAACTTGGGAGGACCCACCTGAGGAGAGGCCTG
B9: rTPO III (dsDNA)
DNA 1: AGCTGATAATCAGAAAGTCAGCAGAATACT
DNA 2: TCGAAGTATTCTGCTGACTTTCTGATTATC
B10: rTPO VI mut5 (dsDNA)
DNA 1: AGCTCAGGCGGAAACTCAGGTGGGTCCTCCCAAGT
DNA 2: TCGAACTTGGGAGGACCCACCTGAGTTTCCGCCTG
B11: rTPO II (dsDNA)
DNA 1: AGCTTTGCAGTGGGGAAGAGATAA
DNA 2: TCGATTATCTCTTCCCCACTGCAA
B12: rTPO VI mut1 (dsDNA)
DNA 1: AGCTCAGGCCTCTCCTCAGGTGGGTCCTCATGGCT
DNA 2: TCGAAGCCATGAGGACCCACCTGAGGAGAGGCCTG
B13: rTPO III mut5 (dsDNA)
DNA 1: AGCTTCGTTTCAGAAAGTCAGCAGAATACT
DNA 2: TCGAAGTATTCTGCTGACTTTCTGAAACGA
B14: rTPO VI mut6 (dsDNA)
DNA 1: AGCTTGTAACTCTCCTCAGGTGGGTCCTCCCAAGT
DNA 2: TCGAACTTGGGAGGACCCACCTGAGGAGAGTTACA
B15: rTPO IV (dsDNA)
DNA 1: AGCTATACTGTGGGATGTACCATA
DNA 2: TCGATATGGTACATCCCACAGTAT
B16: rTPO III mut2 (dsDNA)
DNA 1: AGCTGATAATCAGAAAGTCGTATTAATACT
DNA 2: TCGAAGTATTAATACGACTTTCTGATTATC
B17: rTPO I (dsDNA)
DNA 1: GATCTCTGGGGTTGCAGTGGGGAAGA
DNA 2: TCGATCTTCCCCACTGCAACCCCAGA
B18: rTPO IVmut (dsDNA)
DNA 1: AGCTATACTGTGTTACTTACCATA
DNA 2: TCGATATGGTAAGTAACACAGTAT

One series has as its target T1, nuclear SREBP-2 (nSREBP-2). The experiment in a line: EMSA; EMSA with DIG-labeled annealed oligonucleotides (Roche DIG Gel Shift Kit, 2nd Generation) and TNT T7 in vitro-translated proteins; buffer, salt, pH and temperature not stated (ref 19). To be noted: protein: ivt; chain copies: 2; label: DIG end-label; 5' overhangs 4 nt (AGCT / TCGA).
Take B1: the binding result is listed as “binds”. Regarding B2, the binding result is “no binding”. Regarding B3, the binding result is recorded as “no binding”. For B4, the binding result was “binds”. On the same count and under the same terms, then B5, with “binds”.

On to B6, for which the binding result was “binds”. For the molecule B7, the binding result is “no binding”.

In the case of B8, the binding result is listed as “binds”. Turning to B9, the binding result is “binds”.

As to B10, the binding result is “binds”. For the molecule B11, the binding result is listed as “no binding”. As to B12, the binding result is reported as “binds”. As to B13, the binding result is recorded as “binds”. For B14, the binding result is recorded as “binds”. On the same count and under the same terms, then B15, with “no binding”; and B16, with “no binding”.

The same series, now with this note: protein: ivt; chain copies: 2; label: DIG end-label; 5' overhangs 4 nt (GATC / TCGA).
Consider B17, for which the binding result is “no binding”.

The target of another series is T2, nuclear SREBP-1c (nSREBP-1c). The series is described as above. To be noted: protein: ivt; chain copies: 2; label: DIG end-label; 5' overhangs 4 nt (AGCT / TCGA).
Consider B1, for which the binding result is recorded as “binds”.

Turning to B2, the binding result is “no binding”. In the case of B3, the binding result was “no binding”. On the same count and under the same terms, then B4, with “binds”; and B5, with “binds”; and B6, with “binds”. As to B18, the binding result is on record as “no binding”. Take B7: the binding result is reported as “no binding”. For the molecule B8, the binding result was “binds”.

B9: the binding result is listed as “binds”. For B10, the binding result is “binds”. Regarding B11, the binding result was “no binding”. The same measure, in the same setting: then B12, with “binds”; and B13, with “binds”; and B14, with “binds”. With B15, the binding result was “binds”. As to B16, the binding result was “no binding”.

The same series, now with this note: protein: ivt; chain copies: 2; label: DIG end-label; 5' overhangs 4 nt (GATC / TCGA).
On to B17, for which the binding result is listed as “no binding”.

Values taken from paper PMC3953333, “Sterol Regulatory Element-Binding Proteins Are Regulators of the Rat Thyroid Peroxidase Gene in Thyroid Cells”.
